# Laboratory results reported in patent publication US20200317768A1 (published 2020).
# Numbering of substitutions follows the chain as printed.
# B1: M103205H795-MY263/M103202L889-SK1 (antibody, human IgG1, kappa)
# heavy: QVTLKESGPVLVKPTETLTLTCTVSGIDLSHDDISWVRQAPGKGLEWVGIISYAGSTYYASWAKGRLTISKDTSKNQVVLTMTNMDPVDTATYYCARGVPAYSHGGDLWGQGTLVTVSSASTKGPSVFPLAPSSKSTSGGTAALGCLVKDYFPEPVTVSWNSGALTSGVHTFPAVLQSSGLYSLSSVVTVPSSSLGTQTYICNVNHKPSNTKVDKKVEPKSCDKTHTCPPCPAPELLQGPSVFLFPPKPKDTLMISRTPEVTCVVVDVSDEDPEVKFNWYVDGVEVHNAKTKPREEQYNSTYRVVSVLTVLHQDWLNGKEYKCKVSNKALPKPIEKTISKAKGQPREPQVYTLPPSREEMTKNQVSLTCLVKGFYPSDIAVEWESNGQPENNYKTTPPVLDSDGSFFLYSKLTVDKSRWQQGNVFSCSVMHEALHNHYTQKSLSLSP
# light: DIVMTQSPATLSLSPGERATLSCTSSQSVYHANWLSWFQQKPGQPPKLLIYWASTLAYGVPSRFSGSGSGTDFTLTISSLQPEDAATYYCAGGYGGGRYAFGQGTKVEIKRTVAAPSVFIFPPSDEQLKSGTASVVCLLNNFYPREAKVQWKVDNALQSGNSQESVTEQDSKDSTYSLSSTLTLSKADYEKHKVYACEVTHQGLSSPVTKSFNRGEC
# notes: copies: 2 + 2
# B2: M103205H795-MY267/M103202L889-SK1 (antibody, human IgG1, kappa)
# heavy: B1 heavy with Q238I
# light: B1 light
# notes: copies: 2 + 2
# B3: M103205H795-MY264/M103202L889-SK1 (antibody, human IgG1, kappa)
# heavy: B1 heavy with Q238L
# light: B1 light
# notes: copies: 2 + 2
# B4: M103205H795-MY265/M103202L889-SK1 (antibody, human IgG1, kappa)
# heavy: B1 heavy with Q238T
# light: B1 light
# notes: copies: 2 + 2
# Target: T1, cynomolgus monkey FcγRIIa3 extracellular domain, His-tagged (cynomolgus monkey)
# T1 construct: also called cyno FcgRIIa3; cynoFcγRIIa3; not shown: His-tag added to the C-terminus
# T1 chain: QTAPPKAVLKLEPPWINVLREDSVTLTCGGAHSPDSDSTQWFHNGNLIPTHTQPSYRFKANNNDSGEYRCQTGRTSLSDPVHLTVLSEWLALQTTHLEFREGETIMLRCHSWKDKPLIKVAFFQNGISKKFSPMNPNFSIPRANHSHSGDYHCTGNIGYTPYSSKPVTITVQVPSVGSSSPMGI
# Assay: SPR (BIACORE), antibody captured, FcγR as analyte, 25°C
# Protocol: (§1) The kinetic analysis of interactions between these antibodies and FcγR was carried out using BIACORE® T200 or BIACORE® 4000 (GE Healthcare). HBS-EP+ (GE Healthcare) was used as the running buffer, and the measurement temperature was set to 25° C. A chip produced by immobilizing Protein A. Protein A/G or mouse anti-human IgG kappa light chain (BD Biosciences) onto a Series S Sensor Chip CM4 or CM5 (GE Healthcare) by the amine-coupling method was used. […] After the measurement, the antibody captured on the chip was washed off by allowing reaction with 10 mM glycine-HCl, pH1.5 and 25 mM NaOH so that the chip was regenerated and used repeatedly. The sensorgrams obtained as measurement results were analyzed by the 1:1 Langmuir binding model using the BIACORE® Evaluation Software to calculate the binding rate constant ka (L/mol/s) and dissociation rate constant kd (l/s), and the dissociation constant KD (mol/L) was calculated from these values. […] Regarding such interactions, KD values were calculated using the following 1:1 binding model described in BIACORE® T100 Software Handbook BR1006-48 Edition AE.
# (§2) The behavior of interacting molecules according to the 1:1 binding model on BIACORE® can be described by Equation 1: Req=C·R max/(KD+C)+RI, wherein, Req is a plot of steady-state binding levels to analyte concentration. C is concentration, RI is bulk refractive index contribution in the sample, and Rmax is analyte binding capacity of the surface. When this equation is rearranged, KD can be expressed as Equation 2: KD=C·Rmax/(Req−RI)−C. KD can be calculated by substituting the values of Rmax, RI, and C into Equation 1 or Equation 2. From the current measurement conditions, RI=0, C=2 μmol/L can be used.
row,Binder,Kd
1,B1,7300 nM
2,B2,7300 nM
3,B3,16000 nM
4,B4,4800 nM

# Target: T2, human FcγRIIIaV extracellular domain, His-tagged (human, UniProt P08637 17-208)
# T2 construct: also called human FcgRIIIaV; not shown: His-tag added to the C-terminus
# Assay: as above
# Protocol: as §1, §2
# T2 sequence (P08637 17-208 F176V): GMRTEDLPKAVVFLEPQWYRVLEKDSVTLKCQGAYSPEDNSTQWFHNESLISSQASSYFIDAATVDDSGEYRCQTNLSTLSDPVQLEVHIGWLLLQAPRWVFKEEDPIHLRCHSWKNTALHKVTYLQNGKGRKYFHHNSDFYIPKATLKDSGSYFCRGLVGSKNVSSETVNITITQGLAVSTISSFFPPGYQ
row,Binder,Kd
1,B1,2300 nM
2,B2,15000 nM
3,B3,64000 nM
4,B4,54000 nM

# Target: T3, human FcγRIIaH extracellular domain, His-tagged (human, UniProt P12318 34-217)
# T3 construct: also called human FcgRIIaH; FcγRIIa (type H); not shown: His-tag added to the C-terminus
# T3 sequence: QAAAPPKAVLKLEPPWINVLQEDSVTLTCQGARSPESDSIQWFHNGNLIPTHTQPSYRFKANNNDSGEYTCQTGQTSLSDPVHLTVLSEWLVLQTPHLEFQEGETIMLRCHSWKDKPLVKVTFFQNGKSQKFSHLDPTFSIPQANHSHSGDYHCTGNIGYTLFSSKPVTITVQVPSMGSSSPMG
# Assay: as above
# Protocol: as §1, §2
row,Binder,Kd
1,B1,320 nM
2,B2,200 nM
3,B3,1500 nM
4,B4,210 nM

# Target: T4, cynomolgus monkey FcγRIIIaS extracellular domain, His-tagged (cynomolgus monkey, UniProt A3RFZ7 21-206 (rhesus entry))
# T4 construct: also called cyno FcgRIIIaS; cynoFcγRIIIaS; not shown: His-tag added to the C-terminus
# Assay: as above
# Protocol: as §1, §2
row,Binder,Kd
1,B1,780 nM
2,B2,2700 nM
3,B3,3700 nM
4,B4,2000 nM

# Target: T5, human FcγRIIb extracellular domain, His-tagged (human, UniProt P31994 43-217)
# T5 construct: also called human FcgRIIb; not shown: His-tag added to the C-terminus
# T5 sequence: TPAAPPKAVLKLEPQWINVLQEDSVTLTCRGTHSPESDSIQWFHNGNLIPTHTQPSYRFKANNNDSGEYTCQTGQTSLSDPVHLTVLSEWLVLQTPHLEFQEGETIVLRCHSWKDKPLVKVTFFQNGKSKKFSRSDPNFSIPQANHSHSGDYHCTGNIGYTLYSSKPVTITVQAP
# Assay: as above
# Protocol: as §1, §2
row,Binder,Kd
1,B1,3500 nM
2,B2,5700 nM
3,B3,12000 nM
4,B4,2200 nM

# Target: T6, human FcγRIIaR extracellular domain, His-tagged (human, UniProt P12318 34-217)
# T6 construct: also called human FcgRIIaR; FcγRIIa (type R); not shown: His-tag added to the C-terminus
# T6 chain: T3 sequence with H134R
# Assay: as above
# Protocol: as §1, §2
row,Binder,Kd
1,B1,710 nM
2,B2,720 nM
3,B3,2300 nM
4,B4,440 nM
